We go through seven molecules from US8034572B2, “Receptor for GDNF family ligands” (priority 2006, dated 2011).

Where “and” joins values, the source holds several entries; their conditions need not be identical. Identical values can stand only once. Like-named read-outs stand apart in the source and are kept apart here.

Assay [1] addresses T1, GDNF (Homo sapiens, UniProt P39905).
T1 construct: purchased PeproTech, Ltd. or R&D Systems, Inc
T1 sequence (P39905 78-211 limits assumed): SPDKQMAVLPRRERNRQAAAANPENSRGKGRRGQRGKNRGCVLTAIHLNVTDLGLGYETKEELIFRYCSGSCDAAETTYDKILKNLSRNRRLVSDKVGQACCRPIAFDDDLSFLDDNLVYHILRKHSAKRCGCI
In words: SPR: competition of GDNF binding to heparin-BSA cuvette by heparin and desulfated heparins. The conditions noted are these: competing out GDNF binding to heparin-BSA cuvette. The method, then: (§1) Specifically desulfated heparins (Takano et al., 1998) were used to assess the involvement of different sulfate groups in the GDNF-heparin interaction by following direct binding to GDNF cuvette, or by competing out GDNF binding to the heparin-BSA cuvette. Dissociation constants were determined from direct binding using increasing GDNF concentrations and by fitting the data to R=(Rmax*C)/(Kd+C) for heparin. For desulfated heparins, the best fit was achieved using equation R=(Rmax1*C)/(Kd1+C)+(Rmax2*C)/(Kd2+C), where Kd1 and Kd2 are apparent dissociation constants derived for two heparin sites of different affinities with maximum equilibrium response Rmax1 and Rmax2, respectively.

For assay [2], the target named is T1, GDNF. In words: SPR: direct binding of heparin or desulfated heparins to GDNF cuvette. Here is the method:
as §1
For orientation: SPR reads the build-up and loss of mass on a sensor chip optically.

A short description of assay [3]: SPR (IAsys): GFLs interaction with heparin-BSA cuvette. Format: binding. The conditions noted are these: for ka (×10^−5) (M^−1s^−1) / kdis: GFL in solution; for Kd = kdis/ka: from dynamics; for Kd: from equilibrium response. The method, then: (§2) The affinities of GFLs for heparin and heparin-like molecules (e.g. syndecan-3) were determined by plasmon surface resonance using the IAsys system (Affinity Sensors, Cambridge, UK). Planar aminosilane cuvettes (Affinity Sensors) were used for protein coupling to avoid problems with mass transport, which occur frequently with matrix surfaces. In the initial approach, heparin-BSA was immobilized to the cuvette surface using the manufacturer's instructions and different ligand concentrations were used to determine association (ka) and dissociation (kdis) rates using the IAsys Fastfit software. The dissociation constant Kd was determined from the binding dynamics as […], or from equilibrium response (R) using a simple Langmuir fit: R=(Rmax*C)/(Kd+C), where C is the ligand concentration. […] The dissociation constants were determined from binding dynamics and equilibrium response. The same cuvettes were used to test binding of heparan sulfate proteoglycan syndecan-3, which was purified as an ectodomain from early postnatal rat brains by HB-GAM affinity chromatography (Raulo et al., 1994).
(§3) Binding was analyzed using IAsys cuvettes with immobilized heparin-BSA or GFLs. The dissociation constant Kd was determined from dynamics of association and dissociation (Kd=kdis/ka), or from equilibrium response R (R=(Rmax*C)/(Kd+C), where C is ligand concentration).

Assay [4] can be described thus: SPR (IAsys): heparin interaction with GFLs cuvette. Conditions: for ka (×10^−5) (M^−1s^−1) / kdis: heparin in solution; for Kd = kdis/ka: from dynamics. The class given is binding. The method, then:
as §2, §3

The next assay relates to SHEP cells. Briefly: SHEP cell adhesion and spreading assay on immobilized proteins. The class given is cell-based, human. Conditions: for adherence and spreading of SHEP cells on immobilized protein: protein immobilized on plastic microplate. Here is the method:
Cell adhesion assays were essentially performed as described elsewhere (Weinacker et al., 1994). To prepare protein-coated surfaces the protein of interest (10 μg/ml in PBS) was applied to 96-well ELISA (Greiner) plates or to glass cover slips for 12-18 hours at +4° C. After incubation, the surfaces were washed with PBS and blocked with 1% globulin-free BSA for two hours. Some GDNF coated surfaces were incubated with 20 μg/ml of G-90 (Amgen) GDNF function-blocking antibodies (Xu et al., 1998) for 2 hours at room temperature.
Subconfluent SHEP cells were harvested in PBS supplemented with 10 mM EDTA for 5 min at 37° C. Cells were washed with incubation buffer (RPMI 1640, 0.2% BSA, 15 mM HEPES pH 7.2) and 10000-40000 cells/well plated on the protein coated surface. Plates were centrifuged for 5 min at 10 g and incubated for one hour at 37° C. in 5% CO2. After incubation cells were washed with PBS, fixed with methanol supplemented with crystal violet for 15 min at room temperature and washed again with PBS. The remaining cells were counted using a Leica DMIRB inverted microscope with 10× objective in 5 fields per well.
Some cells were pretreated with heparinase III, PI-PLC (see above), 0.3 U/ml chodroitinase ABC for one hour at 37° C., 5% CO2, or with 20 μg/ml of NCAM blocking antibodies (AB5032, Chemicon Inc.) for 15-30 min on ice.
After one hour of incubation in serum-free medium unattached cells were removed by washing. The remaining cells were stained and counted on Leica DMIRB inverted microscope with a 10× objective in 5 fields per well and the resulting cell number was calculated for the whole well.
Live SHEP cells spreading on immobilized GDNF were imaged for 20 minutes using the Till imaging system with an Imago-QE digital camera (Till Photonics) equipped with heating (+37° C.) and CO2 supply (5%) chambers.

For a further assay, the target named is T2, syndecan-3 ectodomain (Rattus norvegicus, UniProt P33671).
T2 construct: purified as an ectodomain from early postnatal rat brains; from tissue; host or cells: early postnatal rat brain
T2 sequence (P33671 45-387 limits assumed): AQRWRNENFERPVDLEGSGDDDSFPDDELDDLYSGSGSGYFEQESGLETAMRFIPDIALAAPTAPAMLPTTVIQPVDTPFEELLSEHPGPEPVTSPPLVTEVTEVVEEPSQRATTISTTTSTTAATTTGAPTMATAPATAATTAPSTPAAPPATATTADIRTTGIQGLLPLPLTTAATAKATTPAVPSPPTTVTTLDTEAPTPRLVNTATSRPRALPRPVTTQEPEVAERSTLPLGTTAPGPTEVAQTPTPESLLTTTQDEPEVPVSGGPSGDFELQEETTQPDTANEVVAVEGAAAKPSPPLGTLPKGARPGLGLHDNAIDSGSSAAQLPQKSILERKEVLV
In words: SPR (IAsys): syndecan-3 ectodomain interaction with GFLs cuvette. Format: binding. The conditions noted are these: syndecan-3 ectodomain in solution. The method, then: as §2, §3

A short description of assay [5]: Binding of ^125I-labeled GFLs to heparin-sepharose column, step NaCl elution. The conditions noted are these: for NaCl concentration at elution from heparin-sepharose column: ^125I-GFLs, step NaCl gradient; for binding to heparin-sepharose column: ^125I-labeled GFLs. The method, then: GFL iodination was performed as described (Lindahl et al., 2001). Heparin-sepharose column (Amersham Biosciences) chromatography was performed to assess GFL binding to heparin. GDNF, ARTN, NRTN and PSPN were purchased from PeproTech, Ltd. or R&D Systems, Inc. GFLs were enzymatically labeled with carrier-free [^125I]NaI (Amersham Biosciences) by the lactoperoxidase method to a specific activity of 100000-200000 cpm/ng as described elsewhere (Lindahl et al., 2001). 15000-20000 cpm of iodinated GFLs, together with 10 μg of the same unlabeled protein as a carrier, were injected into a 1 ml heparin-sepharose column (Amersham Biosciences) in phosphate buffer pH 7.2 containing 100 mM NaCl and 10 mg/ml of BSA. After washing with 5 volumes of the same buffer, iodinated GFLs were eluted from the column by step elution (2 ml) with increasing NaCl concentration. The resulting fractions were counted on Rackbeta 1214 (LKB/Wallac) scintillation counter.

Assay [6] deals with rat embryonic hippocampal neurons. Briefly: Neurite outgrowth assay in E17 rat hippocampal neurons. The class given is cell-based. The conditions noted are these: E17 rat hippocampal neurons. The method, then:
Hippocampi were dissected from E17 embryonic rat brains under the microscope and transferred to the preparation media (HBBS without Ca^2+ and Mg^2+ supplemented with 1 mM sodium pyruvate (Gibco) and buffered by 10 mM Hepes pH 7.2), then partially digested by papain and triturated in the preparation media supplemented with DNase I. Cells were washed with HBBS containing Ca^2+ and Mg^2+ and transferred to the growth media (Neurobasal media with B27 supplement, 2 mM L-glutamine, 25 μM glutamic acid and penicillin and streptomycin (Gibco)). For enzymatic treatments neurons were kept in the growth media supplemented with 0.2% BSA at +37° C. for one hour. After the treatment cells in the same media were seeded on the protein-coated cover slips (see above) and after 10 min, the media was changed for B27-free media. Neurons were incubated at +37° C., 5% CO2 for 18 hours.
For immunocytochemistry neurons were washed with PBS and fixed with 4% PFA, permeabilized with 0.1% Triton X-100 and stained with rabbit polyclonal antiserum to Protein Gene Product 9.5 (Affiniti), neuron-specific Class III tubulin-βIII clone Tuj1 antibodies (BABCO) or with antibodies against the neurofilament triplet, 13AA8 (Arumäe et al., 1993). Secondary antibodies were goat anti-rabbit or anti-mouse Alexa488-conjugated (Molecular Probes).
The immunostained cultures were viewed using the ×20 objective of a Zeiss Axioplan 2 fluorescent microscope (Zeiss). Neurons with at least two times longer than cell body diameter processes were considered process-bearing. Three cover slips were used in parallel and 100 neurons per cover slip were counted. Results were derived from 3 to 5 independent experiments.

Where [7] appears, read: apparent Kd from equilibrium response, read-out: Kd1.
Setting [8] is: apparent Kd of second site, two-site fit, read-out: Kd2.
The mark [9] stands for this setting: GFLs cuvette, from equilibrium response, read-out: Kd (equilibrium).
[10] abbreviates: pretreatment of cells with SFK inhibitor.

Take 6-O-desulfated heparin: on GDNF [1], the concentration for half-maximal inhibition (IC50) is 1.3 ng/mL. Further, the Kd on GDNF [2] (setting [7]) was 36.3 ± 4.6 nM; at GDNF [2] (setting [8]), 18000 nM and 18100 nM.

In the case of 2-O-desulfated heparin, at GDNF [1], the “IC50” value worked out at 4.3 ng/mL. Besides, the results for the Kd on GDNF [2] (setting [7]) and on GDNF [2] (setting [8]) were 35.4 ± 7.5 nM and 9500 nM, respectively.

For “ARTN: artemin, secreted growth factor, GDNF family ligand”, in assay [3], the “ka (×10^−5) (M^−1s^−1)” value is on record as 0.09 (×10^−5) M^−1s^−1, the “kdis” value turned out to be 0.0013 s⁻¹, the “Kd = kdis/ka” value is recorded as 148 ± 39 nM and the Kd came out at 187 ± 34 nM. In assay [4] (GFLs cuvette), the “ka (×10^−5) (M^−1s^−1)” value is 8.0 (×10^−5) M^−1s^−1, the “kdis” value turned out to be 0.042 s⁻¹ and the “Kd = kdis/ka” value was 44.7 ± 12.3 nM. For the same molecule, the Kd in assay [4] (setting [9]) turned out to be 13 ± 3.9 nM. The “adherence and spreading of SHEP cells on immobilized protein” value (“adherence and spreading of SHEP cells” below) in the assay on SHEP cells was “induced adherence and spreading”. Moreover, the “ka (×10^−5) (M^−1s^−1)” value in the assay with syndecan-3 ectodomain is on record as 6.3 ± 0.7 (×10^−5) M^−1s^−1. Further, in assay [5], the “NaCl concentration at elution from heparin-sepharose column” value (shortened to “NaCl concentration at elution”) was in the range of 1 to 1.5 M and the “binding to heparin-sepharose column” value was “bind strongly to heparin”.

As for `CN(C)S(=O)(=O)c1ccc2c(c1)/C(=C/c1cc3c([nH]1)CCCC3)C(=O)N2` [SU6656, reference compound], in assay [6], the “effect of inhibitor on neurite outgrowth on immobilized GDNF” value is given as “prevented neurite outgrowth”. Besides, in the assay on SHEP cells (setting [10]), the “effect on SHEP cell adherence on immobilized GDNF” value is given as “did not impair their adherence” and the “effect on SHEP cell spreading on immobilized GDNF” value is listed as “diminished their spreading”.

For N-desulfated heparin, on GDNF [1], the “IC50” value came out at 2.3 ng/mL. Moreover, the values for the Kd at GDNF [2] (setting [7]) and on GDNF [2] (setting [8]) were 29.1 ± 6.4 nM and 11400 nM, respectively.

B1: PSPN: persephin, secreted growth factor, GDNF family ligand (protein)
chain: ALSGPCQLWSLTLSVAELGLGYASEEKVIFRYCAGSCPRGARTQHGLALARLQGQGRAHGGPCCRPTRYTDVAFLDDRHRWQRLPQLSAAACGCGG
With B1, in assay [3], the “ka (×10^−5) (M^−1s^−1)” value is listed as 0.87 (×10^−5) M^−1s^−1, the “kdis” value worked out at 0.093 s⁻¹, the “Kd = kdis/ka” value stood at 1072 ± 118 nM and the Kd is more than 1000 nM. Further, in assay [6] (18 hours), the “neurite outgrowth on immobilized protein” value is given as “failed to form processes”. For the same molecule, in assay [4] (GFLs cuvette), the “ka (×10^−5) (M^−1s^−1)” value is given as 0.02 (×10^−5) M^−1s^−1 and the “kdis” value was 0.064 s⁻¹. Moreover, the Kd in assay [4] (SPR, dynamics, read-out: Kd for heparin (dynamics)) was found to be 29100 nM. Also, the Kd in assay [4] (SPR, equilibrium, read-out: Kd for heparin (equilibrium)) stood at 11100 nM. For the same molecule, the “adherence and spreading of SHEP cells” value with SHEP cells is “failed to adhere and spread”. Moreover, in assay [5], the “NaCl concentration at elution” value is reported as 0.5 M and the “binding to heparin-sepharose column” value was “does not”.

B2: NRTN: neurturin, secreted growth factor, GDNF family ligand (protein)
chain: ARLGARPCGLRELEVRVSELGLGYASDETVLFRYCAGACEAAARVYDLGLRRLRQRRRLRRERVRAQPCCRPTAYEDEVSFLDAHSRYHTVHELSARECACV
As for B2, in assay [3], the “ka (×10^−5) (M^−1s^−1)” value was 3.2 (×10^−5) M^−1s^−1, the “kdis” value was 0.018 s⁻¹, the “Kd = kdis/ka” value came to 59.4 ± 6.2 nM and the Kd amounted to 47 ± 7 nM. In assay [4] (GFLs cuvette), the “ka (×10^−5) (M^−1s^−1)” value is recorded as 1.9 (×10^−5) M^−1s^−1, the “kdis” value came to 0.022 s⁻¹ and the “Kd = kdis/ka” value is 114 ± 44 nM. For the same molecule, in assay [4] (setting [9]), the Kd was 23.7 ± 7.7 nM. Besides, the Kd in assay [4] (SPR, dynamics, read-out: dynamics-derived Kd for heparin) was more than 100 nM. The “adherence and spreading of SHEP cells” value in the assay with SHEP cells was “induced adherence and spreading”. Also, in the assay with syndecan-3 ectodomain, the “ka (×10^−5) (M^−1s^−1)” value was 7.5 ± 1.6 (×10^−5) M^−1s^−1. In addition, in assay [5], the “NaCl concentration at elution” value is 1.5 M and the “binding to heparin-sepharose column” value was “bind strongly to heparin”.

For orientation: IC50 means the concentration that gives 50% inhibition. Read a high IC50 as lower potency.
